Measurements published in article PMC4973239, “Crystal structure of the human Tip41 orthologue, TIPRL, reveals a novel fold and a binding site for the PP2Ac C-terminus” (Scientific Reports, 2016).

How the values were obtained:
[1] = target: TIPRLΔN, His tag removed with TEV protease (human) (UniProt O75663); experiment: SEC; size exclusion profiles under different conditions (Fig. S1B), high concentration; HiLoad 26/60 Superdex 75 pg, Tris 20 mM pH 7.5, 100 mM NaCl, 10 mM β-mercaptoethanol
[2] = target: T1, TIPRLΔN, His tag removed with TEV protease (human, UniProt O75663-1 16-272); experiment: crystal structure; TIPRLΔN after TEV cleavage, 70–100 mg/ml; hanging drop at 18 °C, phosphate or SPG buffer pH 5.5–6.7, 2 to 3 M NaCl; two molecules in the asymmetric unit; 2.15 Å; details: both partners purified
T1 construct: plasmid-derived residues left at the N-terminus after TEV cleavage; they form strand β1; TIPRL (TIP41, TOR signaling pathway regulator-like), human, NP_690866.1, with a 15-residue N-terminal deletion; TEV cleavage was usually incomplete; The last 16 C-terminal residues are disordered in the crystal; also called TIPRL (crystal structure); source: E. coli BL21(DE3), purified (Ni Sepharose, TEV …)
T1 sequence: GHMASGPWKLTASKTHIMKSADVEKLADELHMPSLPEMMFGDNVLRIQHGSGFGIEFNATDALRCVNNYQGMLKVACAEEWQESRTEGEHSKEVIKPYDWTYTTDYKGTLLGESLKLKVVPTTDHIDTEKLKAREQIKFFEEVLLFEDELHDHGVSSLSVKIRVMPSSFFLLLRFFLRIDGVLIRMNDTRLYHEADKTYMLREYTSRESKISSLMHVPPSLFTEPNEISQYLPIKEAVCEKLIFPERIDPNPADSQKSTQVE

Question: Which stoichiometry N [1] does the source give for “TIPRLΔN, His tag removed with TEV protease (from UniProt O75663-1 16-272) (domain or fragment)” here?
Answer: Its stoichiometry N is 2.

B1: peptide generated after cleavage with the TEV protease (MGHHHHHHENLYFQ) (peptide)
peptide: MGHHHHHHENLYFQ
notes: hexa-histidine tag and TEV cleavage site of the vector pET-TEV, as released by TEV protease; only LYFQ (site on chain A) or ENLYFQ (site on chain B) is seen in the density; also called TEV site peptide; TEV-derived peptide; source: E. coli BL21(DE3)
Question: Does B1 bind [2]?
Answer: Result: binds
